System: Escherichia coli TOP10
Assay: shrunken log2 fold change of peptide-encoding DNA abundance (4.5 h post-induction vs induction); higher = less antimicrobial activity (less host growth inhibition)
Details: time post-induction: 4.5 h; library: site-saturation at positions 5, 18, 19, 20
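Further: peptides expressed intracellularly from a pBAD plasmid library in pooled LB shake-flask culture, induced with 0.3% L-arabinose, DNA abundance read by NGS, three biological replicates, DESeq2 with apeglm shrinkage.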

RRIRGRPPRLPRPRPRPGFAPRP
shrunken log2 fold change: 0.831

RRIRGRPPRLPRPRPRPGFEPRP
shrunken log2 fold change: 0.813

RRIRGRPPRLPRPRPRPGGGPRP
shrunken log2 fold change: 1.33

RRIRGRPPRLPRPRPRPGGYPRP
shrunken log2 fold change: 0.505

RRIRGRPPRLPRPRPRPGHHPRP
shrunken log2 fold change: 0.16

RRIRGRPPRLPRPRPRPGHMPRP
shrunken log2 fold change: -0.129

RRIRGRPPRLPRPRPRPGKTPRP
shrunken log2 fold change: 0.0643

RRIRGRPPRLPRPRPRPGMGPRP
shrunken log2 fold change: 0.963

RRIRGRPPRLPRPRPRPGMLPRP
shrunken log2 fold change: 0.498

RRIRGRPPRLPRPRPRPGNWPRP
shrunken log2 fold change: 0.541

RRIRGRPPRLPRPRPRPGPDPRP
shrunken log2 fold change: 0.62

RRIRGRPPRLPRPRPRPGPEPRP
shrunken log2 fold change: 0.954

RRIRGRPPRLPRPRPRPGQIPRP
shrunken log2 fold change: 0.352

RRIRGRPPRLPRPRPRPGQWPRP
shrunken log2 fold change: 0.356

RRIRGRPPRLPRPRPRPGRHPRP
shrunken log2 fold change: 0.314

RRIRGRPPRLPRPRPRPGRVPRP
shrunken log2 fold change: 0.554

RRIRGRPPRLPRPRPRPGRWPRP
shrunken log2 fold change: 0.716

RRIRGRPPRLPRPRPRPGWKPRP
shrunken log2 fold change: 0.0657

RRIRGRPPRLPRPRPRPGYTPRP
shrunken log2 fold change: -0.0605

RRIRGRPPRLPRPRPRPHAKPRP
shrunken log2 fold change: 0.126

RRIRGRPPRLPRPRPRPHCKPRP
shrunken log2 fold change: 0.0392

RRIRGRPPRLPRPRPRPHCMPRP
shrunken log2 fold change: -0.207

RRIRGRPPRLPRPRPRPHCNPRP
shrunken log2 fold change: 0.427

RRIRGRPPRLPRPRPRPHDNPRP
shrunken log2 fold change: 0.174

RRIRGRPPRLPRPRPRPHDRPRP
shrunken log2 fold change: -0.0826

RRIRGRPPRLPRPRPRPHGPPRP
shrunken log2 fold change: 0.426

RRIRGRPPRLPRPRPRPHHLPRP
shrunken log2 fold change: 0.374

RRIRGRPPRLPRPRPRPHIKPRP
shrunken log2 fold change: -0.0279

RRIRGRPPRLPRPRPRPHIWPRP
shrunken log2 fold change: 0.00296

RRIRGRPPRLPRPRPRPHKKPRP
shrunken log2 fold change: -0.108

RRIRGRPPRLPRPRPRPHMFPRP
shrunken log2 fold change: 0.445

RRIRGRPPRLPRPRPRPHMNPRP
shrunken log2 fold change: 0.298

RRIRGRPPRLPRPRPRPHMSPRP
shrunken log2 fold change: 1.32

RRIRGRPPRLPRPRPRPHMVPRP
shrunken log2 fold change: -0.0598

RRIRGRPPRLPRPRPRPHNLPRP
shrunken log2 fold change: -0.262

RRIRGRPPRLPRPRPRPHPGPRP
shrunken log2 fold change: 0.421

RRIRGRPPRLPRPRPRPHSDPRP
shrunken log2 fold change: 0.204

RRIRGRPPRLPRPRPRPHSMPRP
shrunken log2 fold change: 0.0488

RRIRGRPPRLPRPRPRPHVVPRP
shrunken log2 fold change: 0.1

RRIRGRPPRLPRPRPRPHWPPRP
shrunken log2 fold change: 2.63

RRIRGRPPRLPRPRPRPHWTPRP
shrunken log2 fold change: 0.00915

RRIRGRPPRLPRPRPRPHYEPRP
shrunken log2 fold change: -0.21

RRIRGRPPRLPRPRPRPHYLPRP
shrunken log2 fold change: -0.295

RRIRGRPPRLPRPRPRPHYPPRP
shrunken log2 fold change: -0.222

RRIRGRPPRLPRPRPRPICNPRP
shrunken log2 fold change: 0.645

RRIRGRPPRLPRPRPRPIEAPRP
shrunken log2 fold change: 0.377

RRIRGRPPRLPRPRPRPIEEPRP
shrunken log2 fold change: 0.235

RRIRGRPPRLPRPRPRPIEKPRP
shrunken log2 fold change: 0.942

RRIRGRPPRLPRPRPRPIFCPRP
shrunken log2 fold change: 0.333

RRIRGRPPRLPRPRPRPIFIPRP
shrunken log2 fold change: -0.0812

RRIRGRPPRLPRPRPRPIFRPRP
shrunken log2 fold change: 0.0691

RRIRGRPPRLPRPRPRPIGCPRP
shrunken log2 fold change: 0.0147

RRIRGRPPRLPRPRPRPIGIPRP
shrunken log2 fold change: -0.159

RRIRGRPPRLPRPRPRPIGNPRP
shrunken log2 fold change: -0.149

RRIRGRPPRLPRPRPRPIGVPRP
shrunken log2 fold change: -0.0542

RRIRGRPPRLPRPRPRPIHHPRP
shrunken log2 fold change: -0.0166

RRIRGRPPRLPRPRPRPIILPRP
shrunken log2 fold change: 0.197

RRIRGRPPRLPRPRPRPILDPRP
shrunken log2 fold change: 0.277

RRIRGRPPRLPRPRPRPILQPRP
shrunken log2 fold change: 0.621

RRIRGRPPRLPRPRPRPILSPRP
shrunken log2 fold change: 0.516

RRIRGRPPRLPRPRPRPIRQPRP
shrunken log2 fold change: -0.0411

RRIRGRPPRLPRPRPRPIRWPRP
shrunken log2 fold change: 0.577

RRIRGRPPRLPRPRPRPISFPRP
shrunken log2 fold change: 0.0122

RRIRGRPPRLPRPRPRPITNPRP
shrunken log2 fold change: 0.201

RRIRGRPPRLPRPRPRPITVPRP
shrunken log2 fold change: -0.0412

RRIRGRPPRLPRPRPRPIVGPRP
shrunken log2 fold change: 0.00341

RRIRGRPPRLPRPRPRPIVSPRP
shrunken log2 fold change: 0.158

RRIRGRPPRLPRPRPRPIWHPRP
shrunken log2 fold change: 0.213

RRIRGRPPRLPRPRPRPIYGPRP
shrunken log2 fold change: -0.141

RRIRGRPPRLPRPRPRPIYQPRP
shrunken log2 fold change: 0.0644

RRIRGRPPRLPRPRPRPKACPRP
shrunken log2 fold change: 0.145

RRIRGRPPRLPRPRPRPKDKPRP
shrunken log2 fold change: 0.558

RRIRGRPPRLPRPRPRPKELPRP
shrunken log2 fold change: 0.247

RRIRGRPPRLPRPRPRPKFNPRP
shrunken log2 fold change: 0.353

RRIRGRPPRLPRPRPRPKFPPRP
shrunken log2 fold change: 0.251

RRIRGRPPRLPRPRPRPKHDPRP
shrunken log2 fold change: 0.466

RRIRGRPPRLPRPRPRPKIIPRP
shrunken log2 fold change: 0.303

RRIRGRPPRLPRPRPRPKIMPRP
shrunken log2 fold change: 0.322

RRIRGRPPRLPRPRPRPKITPRP
shrunken log2 fold change: 0.413

RRIRGRPPRLPRPRPRPKKIPRP
shrunken log2 fold change: 0.494

RRIRGRPPRLPRPRPRPKLDPRP
shrunken log2 fold change: 1.2

RRIRGRPPRLPRPRPRPKLRPRP
shrunken log2 fold change: 0.675

RRIRGRPPRLPRPRPRPKMFPRP
shrunken log2 fold change: 0.065

RRIRGRPPRLPRPRPRPKMQPRP
shrunken log2 fold change: 0.292

RRIRGRPPRLPRPRPRPKPEPRP
shrunken log2 fold change: 0.819

RRIRGRPPRLPRPRPRPKQYPRP
shrunken log2 fold change: 0.234

RRIRGRPPRLPRPRPRPKRPPRP
shrunken log2 fold change: 0.969

RRIRGRPPRLPRPRPRPKRWPRP
shrunken log2 fold change: 0.796

RRIRGRPPRLPRPRPRPKSKPRP
shrunken log2 fold change: 0.611

RRIRGRPPRLPRPRPRPKSNPRP
shrunken log2 fold change: 0.446

RRIRGRPPRLPRPRPRPKTYPRP
shrunken log2 fold change: 0.23

RRIRGRPPRLPRPRPRPKYGPRP
shrunken log2 fold change: -0.111

RRIRGRPPRLPRPRPRPKYLPRP
shrunken log2 fold change: 0.32

RRIRGRPPRLPRPRPRPKYMPRP
shrunken log2 fold change: 0.104

RRIRGRPPRLPRPRPRPLADPRP
shrunken log2 fold change: 1.68

RRIRGRPPRLPRPRPRPLDHPRP
shrunken log2 fold change: 0.178

RRIRGRPPRLPRPRPRPLDKPRP
shrunken log2 fold change: 0.401

RRIRGRPPRLPRPRPRPLDQPRP
shrunken log2 fold change: 1.01

RRIRGRPPRLPRPRPRPLEMPRP
shrunken log2 fold change: 0.998

RRIRGRPPRLPRPRPRPLGEPRP
shrunken log2 fold change: 1.08

RRIRGRPPRLPRPRPRPLGHPRP
shrunken log2 fold change: 0.595

RRIRGRPPRLPRPRPRPLGPPRP
shrunken log2 fold change: 0.456

RRIRGRPPRLPRPRPRPLKDPRP
shrunken log2 fold change: 0.125

RRIRGRPPRLPRPRPRPLKKPRP
shrunken log2 fold change: 0.195

RRIRGRPPRLPRPRPRPLLGPRP
shrunken log2 fold change: 0.833

RRIRGRPPRLPRPRPRPLMTPRP
shrunken log2 fold change: 2.81

RRIRGRPPRLPRPRPRPLNCPRP
shrunken log2 fold change: -0.0116

RRIRGRPPRLPRPRPRPLNYPRP
shrunken log2 fold change: 0.131

RRIRGRPPRLPRPRPRPLPCPRP
shrunken log2 fold change: 0.51

RRIRGRPPRLPRPRPRPLPIPRP
shrunken log2 fold change: 0.0433

RRIRGRPPRLPRPRPRPLPPPRP
shrunken log2 fold change: 1.19

RRIRGRPPRLPRPRPRPLQPPRP
shrunken log2 fold change: 0.991

RRIRGRPPRLPRPRPRPLQYPRP
shrunken log2 fold change: -0.251

RRIRGRPPRLPRPRPRPLRSPRP
shrunken log2 fold change: 1.67

RRIRGRPPRLPRPRPRPLSEPRP
shrunken log2 fold change: 0.52

RRIRGRPPRLPRPRPRPLTLPRP
shrunken log2 fold change: 0.275

RRIRGRPPRLPRPRPRPLTQPRP
shrunken log2 fold change: 0.594

RRIRGRPPRLPRPRPRPLTRPRP
shrunken log2 fold change: 0.803

RRIRGRPPRLPRPRPRPLVMPRP
shrunken log2 fold change: 0.263

RRIRGRPPRLPRPRPRPLVTPRP
shrunken log2 fold change: 1.2

RRIRGRPPRLPRPRPRPLVVPRP
shrunken log2 fold change: 0.39

RRIRGRPPRLPRPRPRPLYIPRP
shrunken log2 fold change: -0.321

RRIRGRPPRLPRPRPRPLYPPRP
shrunken log2 fold change: 0.162

RRIRGRPPRLPRPRPRPMAQPRP
shrunken log2 fold change: 1.07

RRIRGRPPRLPRPRPRPMARPRP
shrunken log2 fold change: 0.318

RRIRGRPPRLPRPRPRPMCSPRP
shrunken log2 fold change: 0.606

RRIRGRPPRLPRPRPRPMDTPRP
shrunken log2 fold change: 1.12

RRIRGRPPRLPRPRPRPMELPRP
shrunken log2 fold change: 0.271

RRIRGRPPRLPRPRPRPMGAPRP
shrunken log2 fold change: 0.821

RRIRGRPPRLPRPRPRPMHCPRP
shrunken log2 fold change: 0.0139

RRIRGRPPRLPRPRPRPMHEPRP
shrunken log2 fold change: 0.928

RRIRGRPPRLPRPRPRPMHPPRP
shrunken log2 fold change: -0.104

RRIRGRPPRLPRPRPRPMHSPRP
shrunken log2 fold change: 0.668

RRIRGRPPRLPRPRPRPMMVPRP
shrunken log2 fold change: 0.294

RRIRGRPPRLPRPRPRPMMWPRP
shrunken log2 fold change: 0.412

RRIRGRPPRLPRPRPRPMNCPRP
shrunken log2 fold change: 0.0167

RRIRGRPPRLPRPRPRPMNFPRP
shrunken log2 fold change: -0.0655

RRIRGRPPRLPRPRPRPMPHPRP
shrunken log2 fold change: 0.523

RRIRGRPPRLPRPRPRPMRIPRP
shrunken log2 fold change: 2.34

RRIRGRPPRLPRPRPRPMRKPRP
shrunken log2 fold change: 1.37

RRIRGRPPRLPRPRPRPMSFPRP
shrunken log2 fold change: 0.308

RRIRGRPPRLPRPRPRPMTDPRP
shrunken log2 fold change: 0.603

RRIRGRPPRLPRPRPRPMVDPRP
shrunken log2 fold change: 0.0455

RRIRGRPPRLPRPRPRPMVTPRP
shrunken log2 fold change: 1.29

RRIRGRPPRLPRPRPRPMWMPRP
shrunken log2 fold change: 0.118

RRIRGRPPRLPRPRPRPMYGPRP
shrunken log2 fold change: -0.107

RRIRGRPPRLPRPRPRPNAGPRP
shrunken log2 fold change: 0.552

RRIRGRPPRLPRPRPRPNASPRP
shrunken log2 fold change: 0.496

RRIRGRPPRLPRPRPRPNCTPRP
shrunken log2 fold change: 0.172

RRIRGRPPRLPRPRPRPNDCPRP
shrunken log2 fold change: -0.04
